Source: patent US20240182572A1 (OSE IMMUNOTHERAPEUTICS, published 2024)

How the values were obtained:
[1] = target: T1, biotinylated Human PD1 (AcroBiosystems, reference EP-101) (human, UniProt Q15116 25-167, limits assumed, biotinylated (site not stated)); experiment: competitive ELISA: hPDL1 immobilized, biotinylated human PD1 at 0.66 µg/ml mixed with the antibody, streptavidin detection
T1 construct: Kit reagent; also called Biotin-PD-1Fc; not shown: Fc part, named only as 'Biotin-PD-1Fc'
Description: To measure antagonist activity of the bifunctional antibody, a competitive ELISA assay was performed by PD-1:PD-L1 Inhibitor Screening ELISA Assay Pair (AcroBiosystems; USA; reference EP-101). In this assay, recombinant hPDL1 was immobilized on plastic at 2 μg/ml in PBS pH 7.4 buffer.
Competitive ELISA assay was performed by PD-1:PD-L1 Inhibitor Screening ELISA Assay Pair (Acro Biosystems; USA; reference EP-101). In this assay, recombinant hPDL1 was immobilized on plastic at 2 μg/ml in PBS pH 7.4 buffer.

[2] = target: T2, Recombinant hPD1 (Sino Biologicals, reference 10377-H08H) (human, UniProt Q15116 25-167); experiment: ELISA, recombinant hPD1 immobilized, detection with peroxidase-labeled anti-human IgG
T2 construct: Bought recombinant protein; also called Human recombinant PD-1 (rPD1) protein; human PD-1
Description: Recombinant hPD1 (Sino Biologicals, Beijing, China; reference 10377-H08H) was immobilized on plastic at […] in carbonate buffer (pH 9.2) and purified antibody was added to measure binding.
For activity ELISA assay, recombinant hPD1 (Sino Biologicals, Beijing, China; reference 10377-H08H) was immobilized on plastic at 0.5 μg/ml in carbonate buffer (pH 9.2) and purified antibody were added to measure binding.

T2 sequence (Q15116 25-167 limits assumed): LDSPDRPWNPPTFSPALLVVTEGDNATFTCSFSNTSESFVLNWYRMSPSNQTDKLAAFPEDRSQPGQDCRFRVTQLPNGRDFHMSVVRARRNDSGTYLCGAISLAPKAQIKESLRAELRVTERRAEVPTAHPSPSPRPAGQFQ
T1 sequence (Q15116 25-167 limits assumed): as above

IC50 [1]: 6.9 nM
EC50 [2]: 0.33 nM
B1: anti PD-1*1/SIRPg*1 (bispecific antibody, human IgG1, kappa, N297A)
chain: DKTHTCPPCPAPELLGGPSVFLFPPKPKDTLMISRTPEVTCVVVDVSHEDPEVKFNWYVDGVEVHNAKTKPREEQYASTYRVVSVLTVLHQDWLNGKEYKCKVSNKALPAPIEKTISKAKGQPREPQVYTLPPCRDELTKNQVSLWCLVKGFYPSDIAVEWESNGQPENNYKTTPPVLDSDGSFFLYSKLTVDKSRWQQGNVFSCSVMHEALHNHYTQKSLSLSPGK
heavy: not shown
light: DVVMTQSPLSLPVTLGQPASISCRSSQSLVHANTNTYLEWYQQRPGQSPRLLIYKVSNRFSGVPDRFSGSGSGTDFTLKISRVEAEDVGVYYCFQGTHVPNTFGQGTKLEIKRTVAAPSVFIFPPSDEQLKSGTASVVCLLNNFYPREAKVQWKVDNALQSGNSQESVTEQDSKDSTYSLSSTLTLSKADYEKHKVYACEVTHQGLSSPVTKSFNRGEC
notes: IgG1 N298A isotype, knob-into-hole; also called anti-PD-1*1/SIRP*1; Anti PD-1*1 SIRP*1
